According to patent US20230002496A1 (STAIDSON BEIJING BIOPHARMACEUTICALS, published 2023):
Substitutions are numbered along the chain they refer to. Where two headings read alike, the source gives them in different places.

T1: human GM-CSFRα, full length on cells (human, UniProt P15509 23-400)
T1 sequence: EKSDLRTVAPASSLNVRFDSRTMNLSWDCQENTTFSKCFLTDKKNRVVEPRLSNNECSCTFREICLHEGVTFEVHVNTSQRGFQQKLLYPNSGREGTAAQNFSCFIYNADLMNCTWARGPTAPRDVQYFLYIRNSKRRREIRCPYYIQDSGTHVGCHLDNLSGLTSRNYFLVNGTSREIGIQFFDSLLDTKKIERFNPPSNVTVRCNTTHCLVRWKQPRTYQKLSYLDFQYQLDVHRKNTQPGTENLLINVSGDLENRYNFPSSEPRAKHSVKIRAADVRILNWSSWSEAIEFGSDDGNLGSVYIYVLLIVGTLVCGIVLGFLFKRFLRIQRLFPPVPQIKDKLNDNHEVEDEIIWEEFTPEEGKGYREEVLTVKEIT

T2: cynomolgus monkey GM-CSFRα on granulocytes (cynomolgus monkey, UniProt A0A2K5UC70 23-393)
T2 sequence: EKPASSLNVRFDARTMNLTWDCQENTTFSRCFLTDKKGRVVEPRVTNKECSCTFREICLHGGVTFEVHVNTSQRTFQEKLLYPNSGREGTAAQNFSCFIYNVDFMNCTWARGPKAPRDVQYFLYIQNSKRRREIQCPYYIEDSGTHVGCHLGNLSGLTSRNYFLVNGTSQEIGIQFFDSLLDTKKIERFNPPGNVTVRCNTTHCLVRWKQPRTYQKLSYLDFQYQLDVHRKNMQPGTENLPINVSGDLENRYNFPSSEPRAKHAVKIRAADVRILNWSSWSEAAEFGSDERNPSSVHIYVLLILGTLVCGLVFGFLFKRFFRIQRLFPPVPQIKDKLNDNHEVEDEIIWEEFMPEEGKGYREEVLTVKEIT

T3: human GM-CSFRα-6His (human, UniProt P15509 23-320)
T3 construct: pTT5-GMRa-6his (ECD), made in 293F cells; also called GMRah; GMRa-6his(ECD)
T3 sequence: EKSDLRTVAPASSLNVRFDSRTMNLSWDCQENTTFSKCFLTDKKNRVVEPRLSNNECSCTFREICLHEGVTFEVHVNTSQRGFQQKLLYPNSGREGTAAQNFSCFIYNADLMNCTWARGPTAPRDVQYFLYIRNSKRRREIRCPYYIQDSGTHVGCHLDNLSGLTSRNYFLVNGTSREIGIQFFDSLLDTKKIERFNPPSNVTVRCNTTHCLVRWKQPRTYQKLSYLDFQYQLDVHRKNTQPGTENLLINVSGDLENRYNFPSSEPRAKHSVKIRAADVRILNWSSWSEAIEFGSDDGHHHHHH

B1: E35-IgG4 (antibody, V domains shown)
VH: QMQLVQSGAEVKKPGASVKVSCKVSGYTLTELSIHWVRQAPGKGLEWMGGFDPEDGETIYAQKFQGRVTMTGDTSTDTAYLELSSLRSEDTALYYCATGRYTSLATTYGFDYWGQGTLVTVSS
VL: EIVMTQSPATLSLSPGERATLSCRASQSVSSYLAWYQQKPGQAPRLLIYGASSRATGIPDRFSGSGSGTDFTLTISRLEPEDFAVYYCQQYDNWPYTFGQGTKLEIK
notes: human IgG4, human kappa; also called E35-IG4
B2: E87b-IgG4 (antibody, V domains shown)
VH: B1 VH with F64S, T102V, A105F, T106F, T107N
VL: B1 VL
notes: human IgG4, human kappa
B3: E87-IgG4 (antibody, V domains shown)
VH: B1 VH with F64S, T102V, A105F, T106F, T107N
VL: B1 VL with D92N, Y96P
notes: human IgG4, human kappa
B4: E108-IgG4 (antibody, V domains shown)
VH: B1 VH with Y27H, S103E, A105Y, T106Q, T107N
VL: B1 VL with D92N, Y96P

Tests used:
[1] = molecular target: T1, human GM-CSFRα, full length on cells; test: cell-based or functional assay
[2] = molecular target: T2, cynomolgus monkey GM-CSFRα on …; test: cell-based or functional assay
[3] = molecular target: T1, human GM-CSFRα, full length on cells; test: cell-based or functional assay; remark: listed apart in the source
[4] = molecular target: T1, human GM-CSFRα, full length on cells; test: cell-based or functional assay; remark: listed apart in the source
[5] = molecular target: T1, human GM-CSFRα, full length on cells; test: cell-based or functional assay; remark: listed apart in the source
[6] = molecular target: T1, human GM-CSFRα, full length on cells; test: cell-based or functional assay; remark: listed apart in the source
[7] = molecular target: T1, human GM-CSFRα, full length on cells; test: cell-based or functional assay; remark: listed apart in the source
[8] = molecular target: T1, human GM-CSFRα, full length on cells; test: cell-based or functional assay; remark: listed apart in the source
[9] = molecular target: T1, human GM-CSFRα, full length on cells; test: cell-based or functional assay; remark: listed apart in the source
human GM-CSFRα-6His [10] = molecular target: T3, human GM-CSFRα-6His; test: SPR, Biacore T200, antibody (IgG4) on CM5 chip, GMRah as analyte
Procedure: The affinities for GMRah at various concentrations were measured. […] The concentrations of 0.625 and 0 nM were repeated once. Using the SPR technology, the association and dissociation rates were measured, and binding affinity was determined.

human GM-CSFRα-6His [11] = molecular target: T3, human GM-CSFRα-6His; test: ELISA, antibodies as human IgG4, one bar for each protein; antibody concentration not shown

Molecule	IC50, human granulocyte shape change [3]	IC50, human granulocyte survival [4]	IC50, CD11b expression on human peripheral blood cells [5]	IC50, TNFα secretion by PBMC (Human Macrophage/Microglia Panel) [6]	IC50, IL-1β secretion by PBMC [7]	IC50, TNFα secretion by PBMC (ELISA) [8]	Kd (human GM-CSFRα-6His [10])	koff (human GM-CSFRα-6His [10])	kon (human GM-CSFRα-6His [10])	further results
Mab-IgG4 (Mavrilimumab) (antibody)	–	–	–	–	–	–	–	–	–	IC50, CD11b expression on human peripheral blood cells [1]: 0.181 µg/mL; IC50, IL-1β secretion by PBMC [1]: 0.0126 µg/mL; IC50, TNFα secretion by PBMC (ELISA) [1]: 1.74 µg/mL; IC50, TNFα secretion by PBMC (Human Macrophage/Microglia Panel) [1]: 3.09 µg/mL
B1	0.00205 µg/mL	0.0042 µg/mL	0.111 µg/mL	0.278 µg/mL	0.00353 µg/mL	0.329 µg/mL	8.9 pM	4.78e-05 s⁻¹	5.37e+06 M⁻¹ s⁻¹	IC50, cynomolgus monkey granulocyte shape change [2]: 0.00253 µg/mL; IC50, TF-1 cell proliferation [9]: 0.0474 µg/mL
B2	0.00151 µg/mL	0.00253 µg/mL	0.144 µg/mL	0.0666 µg/mL	0.0133 µg/mL	0.0935 µg/mL	6.75 pM	2.42e-05 s⁻¹	3.58e+06 M⁻¹ s⁻¹	–
B3	–	–	–	–	–	–	–	–	–	binding result (human GM-CSFRα-6His [11]): binds
B4	0.00207 µg/mL	0.00552 µg/mL	–	–	–	–	–	–	–	–
